Here are results for one molecule from US20110183896A1 (published 2011).

In test [1] the target is Cry3Aa toxin of Bacillus thuringiensis tenebrionis, chymotrypsin-treated (Bacillus thuringiensis subsp. …, UniProt P0A379 159-644). Briefly: ELISA. In general terms: ELISA stands for enzyme-linked immunosorbent assay.
Test [2] deals with Cry3Bb toxin of Bacillus thuringiensis, recombinant from E. coli, chymotrypsin-treated (Bacillus thuringiensis, UniProt Q06117 160-652). Briefly: ELISA saturation binding.
Chain of Cry3Bb toxin of Bacillus thuringiensis, recombinant from E. coli, chymotrypsin-treated (Q06117 160-652): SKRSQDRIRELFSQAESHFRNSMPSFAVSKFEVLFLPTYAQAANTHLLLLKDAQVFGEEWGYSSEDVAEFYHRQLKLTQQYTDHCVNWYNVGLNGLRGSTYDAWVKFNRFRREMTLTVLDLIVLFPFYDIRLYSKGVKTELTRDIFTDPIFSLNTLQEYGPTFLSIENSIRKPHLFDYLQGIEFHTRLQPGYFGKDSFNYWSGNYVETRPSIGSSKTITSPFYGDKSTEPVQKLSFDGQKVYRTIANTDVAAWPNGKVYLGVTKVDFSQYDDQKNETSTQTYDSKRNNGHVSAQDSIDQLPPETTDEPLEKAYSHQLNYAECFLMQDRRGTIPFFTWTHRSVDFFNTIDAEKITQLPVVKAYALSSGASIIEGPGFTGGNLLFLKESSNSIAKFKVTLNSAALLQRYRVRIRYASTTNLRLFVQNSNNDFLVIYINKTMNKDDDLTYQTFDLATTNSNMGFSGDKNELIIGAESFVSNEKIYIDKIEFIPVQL

Usually Kd stands for the equilibrium constant for the complex coming apart.

Chain of Cry3Aa toxin of Bacillus thuringiensis tenebrionis, chymotrypsin-treated (P0A379 159-644): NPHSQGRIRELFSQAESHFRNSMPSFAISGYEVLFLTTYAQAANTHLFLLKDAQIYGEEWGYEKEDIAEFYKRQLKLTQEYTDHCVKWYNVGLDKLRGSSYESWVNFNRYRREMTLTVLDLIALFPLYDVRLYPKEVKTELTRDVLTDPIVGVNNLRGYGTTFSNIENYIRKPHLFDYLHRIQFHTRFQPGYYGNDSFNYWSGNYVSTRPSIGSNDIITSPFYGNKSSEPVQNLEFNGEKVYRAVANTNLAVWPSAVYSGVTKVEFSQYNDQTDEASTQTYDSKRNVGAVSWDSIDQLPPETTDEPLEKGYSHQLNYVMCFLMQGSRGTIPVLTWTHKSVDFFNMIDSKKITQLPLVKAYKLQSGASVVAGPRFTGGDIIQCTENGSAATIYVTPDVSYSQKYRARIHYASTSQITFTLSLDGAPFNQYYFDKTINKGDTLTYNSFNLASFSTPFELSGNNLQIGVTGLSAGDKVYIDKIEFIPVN

B1: Dv-CR8-10 peptide (cadherin repeats 8-10 of the Diabrotica virgifera virgifera cadherin-like protein), biotinylated (peptide)
chain: MAVLMTKDLQCSENLNKDGEVGEGIIGEDIDDGDNAKIDFSVLSIVDKETKNDIQESFNISKIDSDYVLNDTLKKVHLIAFEDLKGKYGTYEVTLHMHDEGDPMQTTDPDPTLTLTIEKWNYQTPSIIFPENDQTYIVLSDQQPGQPLALFNNTGTSNTLPDFSATDGETKDYSKWDVKFSYTQTNYEDDKIFVIDHIQPCVSQLQVSKHFNSDLVRSKKYKLTITASVKDGAEQEGEAGYSTSANISIVFLNNDAQPIFQNSDWSVSFVEFNTTQPAKPLEEQAEYENTKGGLPIYYHFYSENQTLSKYFEVDETSGDLSVIGNLTYDYDQDISFHIVASNDSQVRMLDPRSSLNVTVNFLPRNRRAPQWHHHHHH
modifications: biotinylated (sites not given)
For the molecule B1, the Kd stood at 18.8 nM in test [1] and 1.4 nM in test [2].
